The target of the assay is T1, GST-Whi7 (S. cerevisiae, UniProt P36167 1-246).
T1 sequence (looked up): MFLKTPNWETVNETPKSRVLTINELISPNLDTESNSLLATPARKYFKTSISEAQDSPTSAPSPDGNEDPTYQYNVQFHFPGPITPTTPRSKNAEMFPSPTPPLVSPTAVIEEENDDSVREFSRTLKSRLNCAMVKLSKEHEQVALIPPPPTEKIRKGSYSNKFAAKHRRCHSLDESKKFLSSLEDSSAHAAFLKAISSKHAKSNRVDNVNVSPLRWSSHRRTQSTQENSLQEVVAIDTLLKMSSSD
Kind of assay: pull-down.

This is an account of results in article doi:10.1101/2022.11.10.515958 (bioRxiv, 2022).

B1: Cks1-ALFA (natural protein, S. cerevisiae, UniProt P20486 1-150, looked up)
chain: MYHHYHAFQGRKLTDQERARVLEFQDSIHYSPRYSDDNYEYRHVMLPKAMLKVIPSDYFNSEVGTLRILTEDEWRGLGITQSLGWEHYECHAPEPHILLFKRPLNYEAELRAATAAAQQQQQQQQQQQQQQQQHQTQSISNDMQVPPQIS
For B1, the binding result is reported as “binds”.
